In test [1] the target is T1, G protein-coupled receptor mas-like 1 (Homo sapiens, UniProt Q96LB1).
T1 construct: The receptor has therefore been amplified starting from genomic DNA using a polymerase chain reaction (PCR); expressed in transfected cells; host or cells: CHO-K1 (transient, pcDNA3.1)
T1 sequence (Q96LB1 1-330): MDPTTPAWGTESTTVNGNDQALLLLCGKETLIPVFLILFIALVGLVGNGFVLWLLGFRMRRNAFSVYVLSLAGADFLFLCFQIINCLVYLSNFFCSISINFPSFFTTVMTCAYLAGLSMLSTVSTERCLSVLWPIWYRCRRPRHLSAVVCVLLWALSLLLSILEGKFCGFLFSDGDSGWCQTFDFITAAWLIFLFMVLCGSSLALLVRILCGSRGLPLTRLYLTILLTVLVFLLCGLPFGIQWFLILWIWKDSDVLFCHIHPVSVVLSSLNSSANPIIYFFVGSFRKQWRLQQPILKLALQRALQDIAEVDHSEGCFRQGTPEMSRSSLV
As to the kind of experiment: FLIPR assay of stimulation of mas-like 1 transiently expressed in CHO-K1 cells (Fluo4 Ca2+ fluorescence). The class given is cell-based. As to conditions: for formation of fluorescence in the cells: CHO-K1 cells transiently expressing mas-like 1, zero value about 20 fluorescence intensity units; for agonistic effects on mas-like 1: test system designed in accordance with the detection method. The protocol: CHO-K1 cells were cultivated in basal Iscove's medium supplemented with 10% fetal bovine serum, 10 000 U/ml-10 000 μg/ml penicillin-streptomycin, gentamycin and 2 mM glutamine.
Iscove's medium is commercially available inter alia from Biochrom, Berlin. The composition of Iscove's medium is described in “Iscove, N. N., Melchers, F., Journal of Experimental Medicine 147, 923-933 (1978)”. The CHO-K1 cells were applied in an amount of 2×10^5 cells to a 35 mm culture dish for the transient transfection. The cells were transfected after incubation for about 24 hours or at a confluence of 50-80% with 2 μg of DNA using Lipofectamine reagent which is commercially available inter alia from Invitrogen Life Technologies, Karlsruhe.
About 16 to 18 hours after the transfection, the cells were transferred into 96-well microtiter plates with a density of about 80 000 cells per well. Incubation was then continued for 18 to 24 hours. After this, 95 μl of HBSS (Hank's buffered saline solution) which contained 20 mM HEPES, 2.5 mM probenecid, 4 μM Fluo4 and 1% fetal bovine serum were added, and incubation was carried out in the presence of 5% CO2 at 37° C. for 1 hour. Fluo4 is a dye which fluoresces in the presence of Ca^2+. Fluo4 is sold commercially inter alia by Molecular Probes Europe BV, Leiden. After the incubation, the cells were washed three times with PBS (phosphate buffered saline) which contained 1 mM MgCl2, 1 mM EDTA and 2.5 mM probenecid.
After the last washing step, about 100 μl of the solution were left on the cells in each well. The peptides to be tested were dissolved in water or DMSO (dimethyl sulfoxide) in a concentration of 2 mM. The appropriate dilutions of the final concentration ([…]) were prepared starting from such a stock solution. The fluorescence was measured using a FLIPR (Fluorometric Imaging Plate Reader; Molecular Devices GmbH, Ismaning) for a total of 3 minutes at 1-second intervals for the first minute and at 3-second intervals during the second and third minute. The measurements between 18 seconds and 37 seconds were used to determine the agonistic effect.
Various peptides were tested for their property of stimulating the G protein-coupled receptor mas-like 1. The test was carried out using FLIPR technology. The receptor was for this purpose transiently expressed in CHO-K1 cells.

The target of test [2] is T1, G protein-coupled receptor mas-like 1. As to the kind of experiment: Arachidonic acid liberation in transiently transfected CHO-K1 cells. The class given is cell-based.

Ends that are not written are not given here.

“H-Phe-Leu-Phe-Gln-Pro-Gln-Arg-Pro-NH2 (H-FLFQPQRP-NH2; listed as Homo sapiens) [neuropeptide FF, natural ligand of mas-like 1]”: the “formation of fluorescence in the cells” value in test [1] is “ca. 2 000 fluorescence intensity units”.

In the case of PKPQQFFGLM [substance P2-11], in test [1], the “formation of fluorescence in the cells” value was “ca. 2 500 fluorescence intensity units”. In addition, the “concentration dependence of activation of the receptors” value in test [1] (concentration range from 5×10^−6 to 1×10^−5M) was “linear dependence”. Besides, the “liberation of arachidonic acid” value in test [2] was “liberated arachidonic acid”. “substance P1-9: N-terminal fragment of substance P, SEQ ID NO:12 (RPKPQQFFG; listed as Homo sapiens)”: the “agonistic effects on mas-like 1” value in test [1] is listed as “Agonistic effects were shown”. As for “substance P4-11: fragment of substance P, SEQ ID NO:11 (PQQFFGL; listed as Homo sapiens)”, the “agonistic effects on mas-like 1” value in test [1] is “Agonistic effects were shown”.

Source of the values: patent US7794927B2, “Method for identifying agonists or antagonists of the G-protein coupled receptor mas-like 1” (priority 2002, dated 2010).
